Test results from paper PMC11187563, “The importance of tyrosines in multimers of cyclic RGD nonapeptides: towards αvβ6-integrin targeted radiotherapeutics” (RSC Medicinal Chemistry, 2024).
Where two headings read alike, the source gives them in different places.

Key:
[1] = SPECT imaging of H2009 tumor xenograft, ROI-based tumor uptake; format: in vivo; conditions: SCID, mouse, iv, total radioactivity, i.v. injection of 36.5 MBq, scan time 1 h
Experimental: Fig. 6 Single-photon emission computed tomography (SPECT) of a SCID mouse bearing a human H2009 tumor xenograft on the right shoulder, recorded at 4 time points (1 h, 3 h, 24 h, and 72 h) after i.v. injection of 36.5 MBq of ^177Lu-Y8, scan time 1 h. Tumor position is indicated by white dotted circle. Adjacent figures denote ROI-based tumor uptakes in % IA mL^−1. TEXT PRINTED IN THE PICTURE: no label printed: % IA / mL: 2.8 (1 h p.i.); % IA / mL: 2.7 (3 h p.i.); % IA / mL: 2.4 (24 h p.i.); % IA / mL: 2.0 (72 h p.i.) DOUBTS OF THE COPYIST ABOUT THIS PICTURE: The picture prints no substance label. The unit % IA / mL is printed only at the colour scale bar, and assigning it to the numbers beside the dotted circles is assumed.
SPECT imaging was performed for 60 min per animal on a nanoScan SPECT/CT (Mediso, Budapest, Hungary) at different timepoints (1 h, 3 h, 24 h, 72 h) after intravenous injection of approx. 40 MBq [^177Lu]Lu-Y8 per animal (n = 2). Reconstruction, image analysis and quantification of SPECT data were performed using Nucline and Interview fusion software (both Mediso).

[2] = Ex vivo biodistribution of 177Lu-labeled peptide tetramers in H2009 xenografted SCID mice; conditions: CB17 SCID, mouse, iv, total radioactivity; for tissue uptake at 1.5 h: 90 min p.i.; for tissue uptake at 72 h: 199 pmol, 3 d p.i.; for tissue uptake at 24 h: 154 pmol, 24 h p.i.
Procedure, shortened: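 SCID mice carried subcutaneous H2009 xenografts on the right shoulder. 177Lu-labeled conjugates were injected i.v., and ex vivo organ distribution was measured at two time points post-injection.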

[3] = adrenals, H2009 bearing SCID mice, read-out: Adrenals %IA/g
[4] = blood, H2009 bearing SCID mice, read-out: Blood %IA/g
[5] = bone, H2009 bearing SCID mice, read-out: Bone %IA/g
[6] = heart (myocard), H2009 bearing SCID mice, read-out: Heart (myocard) %IA/g
[7] = kidneys, H2009 bearing SCID mice, read-out: Kidneys %IA/g
[8] = large intestine (empty), H2009 bearing SCID mice, read-out: Large intestine (empty) %IA/g
[9] = liver, H2009 bearing SCID mice, read-out: Liver %IA/g
[10] = lung, H2009 bearing SCID mice, read-out: Lung %IA/g
[11] = muscle, H2009 bearing SCID mice, read-out: Muscle %IA/g
[12] = pancreas, H2009 bearing SCID mice, read-out: Pancreas %IA/g
[13] = small intestine (empty), H2009 bearing SCID mice, read-out: Small intestine (empty) %IA/g

Question: Which results are given for `CC(C)C[C@@H]1NC(=O)[C@H](CC(=O)O)NC(=O)CNC(=O)[C@H](CCCNC(=N)N)NC(=O)[C@H](Cc2ccc(O)cc2)NC(=O)[C@H](CCCCNC(=O)CCc2cn(CCCNC(=O)CCP(=O)(O)CN3CCN(CP(=O)(O)CCC(=O)NCCCn4cc(CCC(=O)NCCCC[C@H]5C(=O)N[C@@H](Cc6ccc(O)cc6)C(=O)N[C@@H](CCCNC(=N)N)C(=O)NCC(=O)N[C@@H](CC(=O)O)C(=O)N[C@@H](CC(C)C)C(=O)N[C@@H](C)C(=O)N[C@@H](Cc6ccc(O)cc6)C(=O)N6CCC[C@@H]6C(=O)N5C)nn4)CCN(CP(=O)(O)CCC(=O)NCCCn4cc(CCC(=O)NCCCC[C@H]5C(=O)N[C@@H](Cc6ccc(O)cc6)C(=O)N[C@@H](CCCNC(=N)N)C(=O)NCC(=O)N[C@@H](CC(=O)O)C(=O)N[C@@H](CC(C)C)C(=O)N[C@@H](C)C(=O)N[C@@H](Cc6ccc(O)cc6)C(=O)N6CCC[C@@H]6C(=O)N5C)nn4)CCN(CP(=O)(O)CCC(=O)NCCCn4cc(CCC(=O)NCCCC[C@H]5C(=O)N[C@@H](Cc6ccc(O)cc6)C(=O)N[C@@H](CCCNC(=N)N)C(=O)NCC(=O)N[C@@H](CC(=O)O)C(=O)N[C@@H](CC(C)C)C(=O)N[C@@H](C)C(=O)N[C@@H](Cc6ccc(O)cc6)C(=O)N6CCC[C@@H]6C(=O)N5C)nn4)CC3)nn2)N(C)C(=O)[C@H]2CCCN2C(=O)[C@H](Cc2ccc(O)cc2)NC(=O)[C@H](C)NC1=O` [Compound 177Lu-Y8, metal not drawn]?
Answer: tissue uptake per volume at 1 h ([1]; 1 h p.i.): 2.8 %ID/mL; tissue uptake per volume at 3 h ([1]; 3 h p.i.): 2.7 %ID/mL; tissue uptake per volume at 24 h ([1]; 24 h p.i.): 2.4 %ID/mL; tissue uptake per volume at 72 h ([1]; 72 h p.i.): 2 %ID/mL; tissue uptake at 1.5 h ([2]; H2009 tumor, 124 pmol, H2009 bearing SCID mice, read-out: Tumor H2009 %IA/g): 5.89 %ID/g; tissue uptake at 72 h ([2]; H2009 tumor, H2009 bearing SCID mice, read-out: Tumor H2009 %IA/g): 1.67 %ID/g; tissue uptake at 1.5 h ([2]; adrenals, 124 pmol, H2009 bearing SCID mice, read-out: Adrenals %IA/g): 0.71 %ID/g; tissue uptake at 24 h [2, 3]: 0.25 %ID/g; tissue uptake at 72 h [2, 3]: 0.22 %ID/g; tissue uptake at 1.5 h ([2]; adrenals, + 50 nmol non-labeled compound 10 min prior to activity, n = 2, read-out: Adrenals %IA/g, + 50 nmol cold): 0.53 %ID/g; tissue uptake at 1.5 h ([2]; blood, 124 pmol, H2009 bearing SCID mice, read-out: Blood %IA/g): 2.54 %ID/g; tissue uptake at 24 h [2, 4]: 0.04 %ID/g; tissue uptake at 72 h [2, 4]: 0.03 %ID/g; tissue uptake at 1.5 h ([2]; blood, + 50 nmol non-labeled compound 10 min prior to activity, n = 2, read-out: Blood %IA/g, + 50 nmol cold): 1.06 %ID/g; tissue uptake at 1.5 h ([2]; bone, 124 pmol, H2009 bearing SCID mice, read-out: Bone %IA/g): 3.24 %ID/g; tissue uptake at 24 h [2, 5]: 0.68 %ID/g; tissue uptake at 72 h [2, 5]: 0.57 %ID/g; tissue uptake at 1.5 h ([2]; bone, + 50 nmol non-labeled compound 10 min prior to activity, n = 2, read-out: Bone %IA/g, + 50 nmol cold): 0.76 %ID/g; tissue uptake at 1.5 h ([2]; heart (myocard), 124 pmol, H2009 bearing SCID mice, read-out: Heart (myocard) %IA/g): 1.01 %ID/g; tissue uptake at 24 h [2, 6]: 0.16 %ID/g; tissue uptake at 72 h [2, 6]: 0.13 %ID/g; tissue uptake at 1.5 h ([2]; heart (myocard), + 50 nmol non-labeled compound 10 min prior to activity, n = 2, read-out: Heart (myocard) %IA/g, + 50 nmol cold): 0.64 %ID/g; tissue uptake at 1.5 h ([2]; kidneys, 124 pmol, H2009 bearing SCID mice, read-out: Kidneys %IA/g): 166 %ID/g; tissue uptake at 24 h [2, 7]: 235 %ID/g; tissue uptake at 72 h [2, 7]: 237 %ID/g; tissue uptake at 1.5 h ([2]; kidneys, + 50 nmol non-labeled compound 10 min prior to activity, n = 2, read-out: Kidneys %IA/g, + 50 nmol cold): 178 %ID/g; tissue uptake at 1.5 h ([2]; large intestine (empty), 124 pmol, H2009 bearing SCID mice, read-out: Large intestine (empty) %IA/g): 3.66 %ID/g; tissue uptake at 24 h [2, 8]: 1.46 %ID/g; tissue uptake at 72 h [2, 8]: 0.48 %ID/g; tissue uptake at 1.5 h ([2]; large intestine (empty), + 50 nmol non-labeled compound 10 min prior to activity, n = 2, read-out: Large intestine (empty) %IA/g, + 50 nmol cold): 0.89 %ID/g; tissue uptake at 1.5 h ([2]; liver, 124 pmol, H2009 bearing SCID mice, read-out: Liver %IA/g): 1.16 %ID/g; tissue uptake at 24 h [2, 9]: 0.98 %ID/g; tissue uptake at 72 h [2, 9]: 0.7 %ID/g; tissue uptake at 1.5 h ([2]; liver, + 50 nmol non-labeled compound 10 min prior to activity, n = 2, read-out: Liver %IA/g, + 50 nmol cold): 0.7 %ID/g; tissue uptake at 1.5 h ([2]; lung, 124 pmol, H2009 bearing SCID mice, read-out: Lung %IA/g): 5.63 %ID/g; tissue uptake at 24 h [2, 10]: 1.2 %ID/g; tissue uptake at 72 h [2, 10]: 0.73 %ID/g; tissue uptake at 1.5 h ([2]; lung, + 50 nmol non-labeled compound 10 min prior to activity, n = 2, read-out: Lung %IA/g, + 50 nmol cold): 3.39 %ID/g; tissue uptake at 1.5 h ([2]; muscle, 124 pmol, H2009 bearing SCID mice, read-out: Muscle %IA/g): 0.87 %ID/g; tissue uptake at 24 h [2, 11]: 0.36 %ID/g; tissue uptake at 72 h [2, 11]: 0.23 %ID/g; tissue uptake at 1.5 h ([2]; muscle, + 50 nmol non-labeled compound 10 min prior to activity, n = 2, read-out: Muscle %IA/g, + 50 nmol cold): 0.2 %ID/g; tissue uptake at 1.5 h ([2]; pancreas, 124 pmol, H2009 bearing SCID mice, read-out: Pancreas %IA/g): 0.42 %ID/g; tissue uptake at 24 h [2, 12]: 0.14 %ID/g; tissue uptake at 72 h [2, 12]: 0.12 %ID/g; tissue uptake at 1.5 h ([2]; pancreas, + 50 nmol non-labeled compound 10 min prior to activity, n = 2, read-out: Pancreas %IA/g, + 50 nmol cold): 0.19 %ID/g; tissue uptake at 1.5 h ([2]; small intestine (empty), 124 pmol, H2009 bearing SCID mice, read-out: Small intestine (empty) %IA/g): 3 %ID/g; tissue uptake at 24 h [2, 13]: 1.03 %ID/g; tissue uptake at 72 h [2, 13]: 0.16 %ID/g
